Laboratory results reported in patent US20240327522A1 (Genentech, published 2024).

Legend:
[1] = biological target: T1, recombinant human αvβ8 protein (PARS-17102) (human); assay: SPR, Biacore T200, Protein A capture, human αvβ8 analyte 0-100 nM, 37 C, 1:1 model (comparison with hC6D4, FIG. 9A)
T1 construct: also called hu.aVb8.17102; not shown: C-terminal acid/basic coils and any purification tags
T1 alpha: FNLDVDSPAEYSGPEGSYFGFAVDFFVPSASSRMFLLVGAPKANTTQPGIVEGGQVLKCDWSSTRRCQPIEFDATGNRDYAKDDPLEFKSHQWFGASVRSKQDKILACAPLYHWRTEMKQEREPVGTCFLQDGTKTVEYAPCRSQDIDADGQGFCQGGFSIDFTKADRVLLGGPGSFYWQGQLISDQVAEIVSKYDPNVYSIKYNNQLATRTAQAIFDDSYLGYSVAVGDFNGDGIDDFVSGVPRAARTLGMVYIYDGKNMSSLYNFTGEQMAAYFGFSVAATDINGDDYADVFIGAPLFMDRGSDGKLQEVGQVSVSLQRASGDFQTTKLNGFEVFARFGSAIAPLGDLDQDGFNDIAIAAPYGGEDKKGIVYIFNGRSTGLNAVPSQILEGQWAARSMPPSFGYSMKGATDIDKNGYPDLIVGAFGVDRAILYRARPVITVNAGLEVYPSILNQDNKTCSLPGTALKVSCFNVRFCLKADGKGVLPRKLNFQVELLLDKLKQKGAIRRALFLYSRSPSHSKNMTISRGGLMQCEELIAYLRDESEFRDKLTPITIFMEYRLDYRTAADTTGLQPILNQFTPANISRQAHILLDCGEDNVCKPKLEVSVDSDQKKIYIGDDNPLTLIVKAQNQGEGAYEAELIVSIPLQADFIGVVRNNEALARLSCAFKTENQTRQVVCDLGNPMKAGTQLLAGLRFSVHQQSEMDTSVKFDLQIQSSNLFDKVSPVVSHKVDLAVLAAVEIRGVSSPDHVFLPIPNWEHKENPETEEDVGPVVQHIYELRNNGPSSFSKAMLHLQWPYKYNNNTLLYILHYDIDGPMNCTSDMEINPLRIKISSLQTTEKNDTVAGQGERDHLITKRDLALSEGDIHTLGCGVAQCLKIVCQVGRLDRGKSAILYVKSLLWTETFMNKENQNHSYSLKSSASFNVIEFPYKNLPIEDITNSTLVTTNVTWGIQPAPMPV
T1 beta: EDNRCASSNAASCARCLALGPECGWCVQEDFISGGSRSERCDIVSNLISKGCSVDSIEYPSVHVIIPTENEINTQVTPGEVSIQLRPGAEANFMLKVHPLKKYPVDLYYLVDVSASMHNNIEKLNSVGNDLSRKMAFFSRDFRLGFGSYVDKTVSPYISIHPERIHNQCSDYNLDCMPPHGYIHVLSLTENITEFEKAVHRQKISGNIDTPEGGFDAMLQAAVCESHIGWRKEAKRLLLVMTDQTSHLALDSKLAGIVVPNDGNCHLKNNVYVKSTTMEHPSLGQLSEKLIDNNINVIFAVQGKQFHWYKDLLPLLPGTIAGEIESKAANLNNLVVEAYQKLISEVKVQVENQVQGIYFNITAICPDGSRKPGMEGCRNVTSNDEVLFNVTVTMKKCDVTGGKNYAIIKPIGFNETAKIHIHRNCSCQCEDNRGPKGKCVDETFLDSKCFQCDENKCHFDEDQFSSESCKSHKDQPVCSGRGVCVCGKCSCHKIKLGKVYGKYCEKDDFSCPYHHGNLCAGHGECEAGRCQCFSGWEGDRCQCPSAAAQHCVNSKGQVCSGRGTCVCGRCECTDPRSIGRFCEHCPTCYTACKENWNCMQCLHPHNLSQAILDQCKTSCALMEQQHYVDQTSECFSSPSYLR
Procedure: (§1) The antibodies were first captured either on a Biacore™ Protein A biosensor chip (Cytiva Life Sciences) or on an anti-murine Fc chip to achieve approximately 60 response units. Binding measurements were performed using a running buffer composed of 10 mM HEPES (pH 7.4), 150 mM NaCl, 0.5 mM CaCl₂), and 0.005% Surfactant P20 (Cytiva Life Sciences). For comparison between αvβ8-65 and hC6D4, a 5-fold dilution series of human αvβ8 (range, 0-100 nM in running buffer) was injected into the Biacore™ T200. For comparison between αvβ8-65 and hADWA11-2.4, a 5-fold dilution series of human αvβ8 (range, 0-100 nM in running buffer) was injected. For comparison of all three antibodies in the murine Fc format, a 5-fold dilution series of human αvβ8 (range, 0-50 nM in running buffer) was injected. All injections were performed over 180 seconds, with a dissociation time of 1200 seconds, at a flow rate of 100 μL/minute and a temperature of 37° C. Between sample injections, a regeneration reagent (10 mM glycine pH 1.5 for protein A chip; 10 mM glycine pH 1.7 for anti-murine Fc chip) was injected to regenerate the sensor chip (twice, over 30 seconds at 10 μL/minute for each injection). To determine the binding kinetics and affinity constants of the antibodies to human αvβ8 protein, the signal from the reference flow cell (FC1, with only protein A on the surface) was “double referenced” by subtracting the signal observed after injecting the sample over FC1, followed by subtracting the signal observed after injecting only running buffer. The kinetic constants were calculated using nonlinear regression fitting of the data, according to a 1:1 Langmuir binding model, using Biacore™ Evaluation Software (Cytiva Life Sciences).
(§2) The values of the kinetic constants kon, koff, and KD for the binding of αvβ8-65, hC6D4 and ADWA11-2.4 to the various species of αvβ8 proteins are summarized in Table 13. A 1:1 Langmuir binding model was used to determine the KD values. The sensograms observed for the bindings of the various αvβ8 proteins to the captured antibody are shown in FIG. 9A, FIG. 9B, and FIG. 10.

[2] = biological target: T1, recombinant human αvβ8 protein …; assay: SPR, Biacore T200, Protein A capture, human αvβ8 analyte 0-100 nM, 37 C, 1:1 model (comparison with hADWA11-2.4, FIG. 9B)
Procedure: as §1, §2

Kd [1]: 1010 pM
koff [1]: 0.000169 s⁻¹
kon [1]: 168000 M⁻¹ s⁻¹
Kd [2]: 528 pM
koff [2]: 9.58e-05 s⁻¹
kon [2]: 181000 M⁻¹ s⁻¹
B1: Hu.aVb8-65.H15L2 (aVb8-65.H15L2.hIgG1.LALAPG) (antibody, V domains shown)
VH: EVQLLESGGGLVQPGGSLRLSCAASGIDLSNYAMIWVRQAPGKGLEWVGIISSSDRIWYASWVKGRFTISRDNSKNTLYLQMNSLRAEDTAVYYCSRSVSNSYFDGWNLWGQGTLVTVSS
VL: DIQMTQSPSSVSASVGDRVTITCQASENINSLLAWYQQKPGKAPKLLIYRASTLASGVPSRFSGSGSGTDFTLTISSLQPEDFATYYCQSNYGFTGSGAFFYGFGQGTKVEIKR
notes: Human IgG1 LALAPG; also called PARS-20475-65 (IH) aVb8-65.H15L2.hIgG1.LALAPG; humanized αvβ8-65
